Laboratory results: article PMC9482650, “Quantitative fragmentomics allow affinity mapping of interactomes” (Nature Communications, 2022)

Target: T1, DLG3_2, Q92796
T1 sequence (Q92796 221-321, limits assumed, looked up): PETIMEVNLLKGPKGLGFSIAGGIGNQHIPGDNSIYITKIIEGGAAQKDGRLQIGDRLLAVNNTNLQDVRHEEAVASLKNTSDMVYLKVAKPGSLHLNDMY
Test: holdup assay
Design: key: below the threshold = too weak to quantify, mostly under pKd 3.1 to 4
Conditions: plain residues with an end cap or a label only (N-terminal biotin on a linker: ahx)

Row | Binder | pKd
1 | APSRKLNTEI [TIAM1, Q13009] | 3.72
2 | TESNLQTSSC [CGN, Q9P2M7] | below the threshold

Target: Inadl_3, Q8NI35
Test: holdup assay
Design: key: below the threshold = too weak to quantify, mostly under pKd 3.1 to 4
Conditions: plain residues with an end cap or a label only (N-terminal biotin on a linker: ahx)

Inadl_3, Q8NI35, sequence (Q8NI35 359-469): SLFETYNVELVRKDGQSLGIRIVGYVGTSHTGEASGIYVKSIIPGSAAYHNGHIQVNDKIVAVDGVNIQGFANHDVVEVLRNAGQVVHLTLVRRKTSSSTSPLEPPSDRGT

Row | Binder | pKd
3 | APSRKLNTEI [TIAM1, Q13009] | below the threshold
4 | TESNLQTSSC [CGN, Q9P2M7] | 3.64

Target: Inadl_5, Q8NI35
Test: holdup assay
Design: key: below the threshold = too weak to quantify, mostly under pKd 3.1 to 4
Conditions: plain residues with an end cap or a label only (N-terminal biotin on a linker: ahx)

Inadl_5, Q8NI35, sequence (Q8NI35 673-780): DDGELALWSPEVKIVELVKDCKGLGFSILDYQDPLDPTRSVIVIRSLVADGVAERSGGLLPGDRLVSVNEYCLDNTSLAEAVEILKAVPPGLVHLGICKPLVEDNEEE

Row | Binder | pKd
5 | APSRKLNTEI [TIAM1, Q13009] | below the threshold
6 | TESNLQTSSC [CGN, Q9P2M7] | below the threshold

Target: T2, PDZRN3_1, Q9UPQ7
T2 sequence (Q9UPQ7 244-349, limits assumed, looked up): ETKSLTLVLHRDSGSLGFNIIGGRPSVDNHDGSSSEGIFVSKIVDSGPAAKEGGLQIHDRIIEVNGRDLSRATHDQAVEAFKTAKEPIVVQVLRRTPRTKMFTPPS
Test: holdup assay
Design: key: below the threshold = too weak to quantify, mostly under pKd 3.1 to 4
Conditions: plain residues with an end cap or a label only (N-terminal biotin on a linker: ahx)

Row | Binder | pKd
7 | APSRKLNTEI [TIAM1, Q13009] | below the threshold
8 | TESNLQTSSC [CGN, Q9P2M7] | below the threshold

Target: LDB3, O75112
Test: holdup assay
Design: key: below the threshold = too weak to quantify, mostly under pKd 3.1 to 4
Conditions: plain residues with an end cap or a label only (N-terminal biotin on a linker: ahx)

LDB3, O75112, sequence (O75112 1-94): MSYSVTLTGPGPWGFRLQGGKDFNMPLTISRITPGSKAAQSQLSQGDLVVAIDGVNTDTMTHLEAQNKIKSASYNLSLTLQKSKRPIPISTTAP

Row | Binder | pKd
9 | APSRKLNTEI [TIAM1, Q13009] | below the threshold
10 | TESNLQTSSC [CGN, Q9P2M7] | below the threshold

Target: T3, LIN7B, Q9HAP6
T3 sequence (Q9HAP6 88-185, limits assumed, looked up): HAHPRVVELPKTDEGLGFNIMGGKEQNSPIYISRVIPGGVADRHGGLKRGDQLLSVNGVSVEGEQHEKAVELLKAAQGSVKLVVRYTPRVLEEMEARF
Test: holdup assay
Design: key: below the threshold = too weak to quantify, mostly under pKd 3.1 to 4
Conditions: plain residues with an end cap or a label only (N-terminal biotin on a linker: ahx)

Row | Binder | pKd
11 | APSRKLNTEI [TIAM1, Q13009] | below the threshold
12 | TESNLQTSSC [CGN, Q9P2M7] | below the threshold

Target: T4, DLG3_1, Q92796
T4 sequence (Q92796 125-227, limits assumed, looked up): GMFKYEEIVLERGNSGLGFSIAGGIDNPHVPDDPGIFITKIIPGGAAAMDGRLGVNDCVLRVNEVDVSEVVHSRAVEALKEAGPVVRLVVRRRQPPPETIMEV
Test: holdup assay
Design: key: below the threshold = too weak to quantify, mostly under pKd 3.1 to 4
Conditions: plain residues with an end cap or a label only (N-terminal biotin on a linker: ahx)

Row | Binder | pKd
13 | APSRKLNTEI [TIAM1, Q13009] | below the threshold
14 | TESNLQTSSC [CGN, Q9P2M7] | below the threshold

Target: DLG1_3, Q12959
Test: holdup assay
Design: key: below the threshold = too weak to quantify, mostly under pKd 3.1 to 4
Conditions: plain residues with an end cap or a label only (N-terminal biotin on a linker: ahx)

DLG1_3, Q12959, sequence (Q12959 457-571): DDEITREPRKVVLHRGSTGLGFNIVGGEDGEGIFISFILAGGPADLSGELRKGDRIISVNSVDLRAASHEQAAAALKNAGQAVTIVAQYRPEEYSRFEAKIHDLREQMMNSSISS

Row | Binder | pKd
15 | APSRKLNTEI [TIAM1, Q13009] | below the threshold
16 | TESNLQTSSC [CGN, Q9P2M7] | below the threshold

Target: NHERF4_2, Q86UT5
Test: holdup assay
Design: key: below the threshold = too weak to quantify, mostly under pKd 3.1 to 4
Conditions: plain residues with an end cap or a label only (N-terminal biotin on a linker: ahx)

NHERF4_2, Q86UT5, sequence (Q86UT5 220-308): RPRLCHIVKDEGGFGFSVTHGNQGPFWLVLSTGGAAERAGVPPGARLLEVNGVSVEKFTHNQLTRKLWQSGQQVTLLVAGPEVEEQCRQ

Row | Binder | pKd
17 | APSRKLNTEI [TIAM1, Q13009] | below the threshold
18 | TESNLQTSSC [CGN, Q9P2M7] | below the threshold

Target: T5, SIPA1L2, Q9P2F8
T5 sequence (Q9P2F8 945-1036, limits assumed, looked up): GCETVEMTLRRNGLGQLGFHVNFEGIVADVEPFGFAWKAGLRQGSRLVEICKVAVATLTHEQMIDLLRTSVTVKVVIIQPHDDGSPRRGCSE
Test: holdup assay
Design: key: below the threshold = too weak to quantify, mostly under pKd 3.1 to 4
Conditions: plain residues with an end cap or a label only (N-terminal biotin on a linker: ahx)

Row | Binder | pKd
19 | APSRKLNTEI [TIAM1, Q13009] | below the threshold
20 | TESNLQTSSC [CGN, Q9P2M7] | below the threshold

Target: SCRIB_1, Q14160
Test: holdup assay
Design: key: below the threshold = too weak to quantify, mostly under pKd 3.1 to 4
Conditions: plain residues with an end cap or a label only (N-terminal biotin on a linker: ahx)

SCRIB_1, Q14160, sequence (Q14160 718-814): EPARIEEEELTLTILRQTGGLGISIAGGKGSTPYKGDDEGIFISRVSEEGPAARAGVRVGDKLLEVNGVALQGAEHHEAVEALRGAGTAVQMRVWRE

Row | Binder | pKd
21 | APSRKLNTEI [TIAM1, Q13009] | below the threshold
22 | TESNLQTSSC [CGN, Q9P2M7] | below the threshold

Target: T6, NHERF3_3, Q5T2W1
T6 sequence (Q5T2W1 238-333, limits assumed, looked up): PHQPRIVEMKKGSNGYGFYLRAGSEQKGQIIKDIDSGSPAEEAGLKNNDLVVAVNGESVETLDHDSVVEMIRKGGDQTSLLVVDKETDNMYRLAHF
Test: holdup assay
Design: key: below the threshold = too weak to quantify, mostly under pKd 3.1 to 4
Conditions: plain residues with an end cap or a label only (N-terminal biotin on a linker: ahx)

Row | Binder | pKd
23 | APSRKLNTEI [TIAM1, Q13009] | below the threshold
24 | TESNLQTSSC [CGN, Q9P2M7] | below the threshold

Target: GRID2IP_1, A4D2P6
Test: holdup assay
Design: key: below the threshold = too weak to quantify, mostly under pKd 3.1 to 4
Conditions: plain residues with an end cap or a label only (N-terminal biotin on a linker: ahx)

GRID2IP_1, A4D2P6, sequence (A4D2P6 1-87): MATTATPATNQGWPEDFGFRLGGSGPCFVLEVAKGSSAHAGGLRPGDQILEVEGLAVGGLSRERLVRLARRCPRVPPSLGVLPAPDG

Row | Binder | pKd
25 | APSRKLNTEI [TIAM1, Q13009] | below the threshold
26 | TESNLQTSSC [CGN, Q9P2M7] | below the threshold

Target: T7, DFNB31_1, Q9P202
T7 sequence (Q9P202 135-233, limits assumed, looked up): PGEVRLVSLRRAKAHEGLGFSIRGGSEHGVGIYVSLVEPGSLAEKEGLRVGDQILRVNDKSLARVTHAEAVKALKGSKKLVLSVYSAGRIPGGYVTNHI
Test: holdup assay
Design: key: below the threshold = too weak to quantify, mostly under pKd 3.1 to 4
Conditions: plain residues with an end cap or a label only (N-terminal biotin on a linker: ahx)

Row | Binder | pKd
27 | APSRKLNTEI [TIAM1, Q13009] | 3.55
28 | TESNLQTSSC [CGN, Q9P2M7] | below the threshold

Target: TJP1_3, Q07157
Test: holdup assay
Design: key: below the threshold = too weak to quantify, mostly under pKd 3.1 to 4
Conditions: plain residues with an end cap or a label only (N-terminal biotin on a linker: ahx)

TJP1_3, Q07157, sequence (Q07157 416-512): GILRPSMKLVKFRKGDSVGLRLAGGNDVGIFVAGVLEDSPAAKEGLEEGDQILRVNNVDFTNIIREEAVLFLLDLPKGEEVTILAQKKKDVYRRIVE

Row | Binder | pKd
29 | APSRKLNTEI [TIAM1, Q13009] | below the threshold
30 | TESNLQTSSC [CGN, Q9P2M7] | below the threshold

Target: T8, MPDZ_10, O75970
T8 sequence (O75970 1624-1722, limits assumed, looked up): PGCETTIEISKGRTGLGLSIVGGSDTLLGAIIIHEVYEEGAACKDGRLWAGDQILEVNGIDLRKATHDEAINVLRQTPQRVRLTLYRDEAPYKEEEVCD
Test: holdup assay
Design: key: below the threshold = too weak to quantify, mostly under pKd 3.1 to 4
Conditions: plain residues with an end cap or a label only (N-terminal biotin on a linker: ahx)

Row | Binder | pKd
31 | APSRKLNTEI [TIAM1, Q13009] | 3.75
32 | TESNLQTSSC [CGN, Q9P2M7] | 3.9

Target: FRMPD2_3, Q68DX3
Test: holdup assay
Design: key: below the threshold = too weak to quantify, mostly under pKd 3.1 to 4
Conditions: plain residues with an end cap or a label only (N-terminal biotin on a linker: ahx)

FRMPD2_3, Q68DX3, sequence (Q68DX3 1073-1166): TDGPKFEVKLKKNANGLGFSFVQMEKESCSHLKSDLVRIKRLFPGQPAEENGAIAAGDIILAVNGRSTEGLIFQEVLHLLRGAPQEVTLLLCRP

Row | Binder | pKd
33 | APSRKLNTEI [TIAM1, Q13009] | below the threshold
34 | TESNLQTSSC [CGN, Q9P2M7] | below the threshold

Target: T9, MPDZ_5, O75970
T9 sequence (O75970 695-796, limits assumed, looked up): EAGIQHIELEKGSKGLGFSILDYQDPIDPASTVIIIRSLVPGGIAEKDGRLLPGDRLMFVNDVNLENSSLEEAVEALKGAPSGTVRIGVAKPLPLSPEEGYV
Test: holdup assay
Design: key: below the threshold = too weak to quantify, mostly under pKd 3.1 to 4
Conditions: plain residues with an end cap or a label only (N-terminal biotin on a linker: ahx)

Row | Binder | pKd
35 | APSRKLNTEI [TIAM1, Q13009] | below the threshold
36 | TESNLQTSSC [CGN, Q9P2M7] | below the threshold

Target: AHNAK1, Q09666
Test: holdup assay
Design: key: below the threshold = too weak to quantify, mostly under pKd 3.1 to 4
Conditions: plain residues with an end cap or a label only (N-terminal biotin on a linker: ahx)

AHNAK1, Q09666, sequence (Q09666 4-100): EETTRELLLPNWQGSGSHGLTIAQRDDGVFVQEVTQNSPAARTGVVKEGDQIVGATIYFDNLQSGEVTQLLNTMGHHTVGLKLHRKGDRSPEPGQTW

Row | Binder | pKd
37 | APSRKLNTEI [TIAM1, Q13009] | below the threshold
38 | TESNLQTSSC [CGN, Q9P2M7] | below the threshold

Target: T10, MPDZ_12, O75970
T10 sequence (O75970 1857-1958, limits assumed, looked up): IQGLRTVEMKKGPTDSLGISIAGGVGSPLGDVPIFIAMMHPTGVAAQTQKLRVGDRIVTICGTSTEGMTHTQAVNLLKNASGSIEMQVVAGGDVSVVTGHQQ
Test: holdup assay
Design: key: below the threshold = too weak to quantify, mostly under pKd 3.1 to 4
Conditions: plain residues with an end cap or a label only (N-terminal biotin on a linker: ahx)

Row | Binder | pKd
39 | APSRKLNTEI [TIAM1, Q13009] | below the threshold
40 | TESNLQTSSC [CGN, Q9P2M7] | below the threshold

Target: NHERF4_4, Q86UT5
Test: holdup assay
Design: key: below the threshold = too weak to quantify, mostly under pKd 3.1 to 4
Conditions: plain residues with an end cap or a label only (N-terminal biotin on a linker: ahx)

NHERF4_4, Q86UT5, sequence (Q86UT5 464-550): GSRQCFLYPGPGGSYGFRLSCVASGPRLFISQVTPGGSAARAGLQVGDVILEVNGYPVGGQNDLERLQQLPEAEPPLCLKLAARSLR

Row | Binder | pKd
41 | APSRKLNTEI [TIAM1, Q13009] | below the threshold
42 | TESNLQTSSC [CGN, Q9P2M7] | below the threshold

Target: T11, SNTG2, Q9NY99
T11 sequence (Q9NY99 68-166, limits assumed, looked up): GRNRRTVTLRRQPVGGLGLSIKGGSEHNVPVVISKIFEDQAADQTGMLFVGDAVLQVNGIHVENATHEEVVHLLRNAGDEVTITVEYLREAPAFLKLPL
Test: holdup assay
Design: key: below the threshold = too weak to quantify, mostly under pKd 3.1 to 4
Conditions: plain residues with an end cap or a label only (N-terminal biotin on a linker: ahx)

Row | Binder | pKd
43 | APSRKLNTEI [TIAM1, Q13009] | below the threshold
44 | TESNLQTSSC [CGN, Q9P2M7] | below the threshold

Target: SNX27, Q96L92
Test: holdup assay
Design: key: below the threshold = too weak to quantify, mostly under pKd 3.1 to 4
Conditions: plain residues with an end cap or a label only (N-terminal biotin on a linker: ahx)

Row | Binder | pKd
45 | APSRKLNTEI [TIAM1, Q13009] | below the threshold
46 | TESNLQTSSC [CGN, Q9P2M7] | 4.65

Target: T12, RAPGEF6, Q8TEU7
T12 sequence (Q8TEU7 525-625, limits assumed, looked up): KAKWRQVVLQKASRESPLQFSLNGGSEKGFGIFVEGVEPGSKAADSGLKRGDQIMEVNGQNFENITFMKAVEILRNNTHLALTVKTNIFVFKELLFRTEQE
Test: holdup assay
Design: key: below the threshold = too weak to quantify, mostly under pKd 3.1 to 4
Conditions: plain residues with an end cap or a label only (N-terminal biotin on a linker: ahx)

Row | Binder | pKd
47 | APSRKLNTEI [TIAM1, Q13009] | below the threshold
48 | TESNLQTSSC [CGN, Q9P2M7] | below the threshold
